Article PMC6479716

Target: AEDANS labelled N-ter hexahistidine tagged LMV VPg (Lettuce mosaic virus (isolate AF199))
Experiment: fluorescence polarisation; steady state fluorescence anisotropy of AEDANS labelled His6 VPg* (300 nM) on addition of His6 eIF4E; 25 °C, 20 mM HEPES pH 7.5, 0.25 mM NaCl, 1 mM DTT

B1: N-ter hexahistidine tagged lettuce eIF4E (natural protein)
chain: MVEEIMKSEEQKLIDVNKHRGVRSDGEEDEQLEEGEIVGGDADTLSSSSSSRPGTAIAQHPLEHSWTFWFDTPSAKSKQVAWGSSMRPIYTFSSVEEFWSLYNNIHRPSKLAQGADFYCFKNKIEPKWEDPVCANGGKWTMTFTKAKSDTCWLYTLLAMIGEQFDHGDDICGAVVNVRARQEKIALWTKNAANESAQLSIGKQWKEFIDYNDTIGFIFHEDAKTLDRSAKNKYTV
Binder B1 has a Kd of 0.063 µM.
